Measured values as given in a protein production outcome set (Wang et al. 2014).

Test: label from the status in PepcDB records
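Also: failed if final PepcDB status was selected cloned or expressed and not failed if soluble or beyond.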

Sequence: MHYRWTLLTLAASLLCVPSASGLAEFGIEGMGVVSTPANEARATLSPDGQRIVWASDRTGGTGGWDLWQAQLRGGRWQDAQPLPINTAQDETTPLFSADGRWLLFASTRPGGAGGSDLYRAPVDAQGAVGPVQSLGAAIDSAGNERAPTLSLDGTRLLFASDGHGGAGGMDLFVAHWDGQAFTAPVALVDINSAADELDAAWLGDGRALVWARGKTDDPSQLLLAICKDGHFVQGSPLPLSFNGPQERTFGAVVDTAKPGELLVTGSARAPRAGQLDIYRMKAPAADGDASCR
- protein production: failed

Sequence: MHPKTQQILEVFEEINKIPRRSKHEEQISTWLQEWGRSRGFEVKADSLNNVLIKVPATTGYEDSPTLILQGHMDMVCEKCKDSIHDFSRDPIRCICDGDWMRGDGTSIGADDGIALALGLVMAEAGKKGEIGHPPLELLFTVDEETGLTGARGLETGFFEGKILLNLDSEDEGIFVIGCAGGQNSQITLPVEWELLDFKEENLFRFFRLSVEGLEGGHSGTEINKQRANGIQLLSLALVKLRGKLGIENVRLVLLNGGTVHNAIPSTAEAFIALHGEKLEKAAETMSDIRHAFKAEYAKTDPGLILNFEEISREIIFEVAEDKIPREEVSHVRVFSLETEEKLLELILGLPHGVYRMSETIHGLVETSNNLATVRTAGNEVIIVSSQRSSNNLRLAEISGKVEAISKLAGAWVEHEPGYPAWEPNLKSELILKCKQVYTETFGKEPEIEVIHAGLECGIIGSAHEGMEMISFGPTIKDAHSPAEKIFVPSIEKVWIFLENLFKTYC
- protein production: failed

Sequence: MCRNNREDIFNLVPINIISSKFHVKVIGGGKAATIKVKGLLEKGCYVHILSKEFSKEILDIENKNLKLEKGNYYKEFIKDAHLIIIAVNESSLVYKISKDCEKEYKLYLNAANYKEGMVAIPYSRCYENLGFSISSKLGSPRITRAIGEEVSNIIKENDIYSIKVAKIREKAKKEELKDNIIEIISSKEFKNAILEKREYEYLKNLLGEELANSLTLGLK
- protein production: failed

Sequence: MNKNILFLSLMALPVFAFAENNLVLPTITVSAEQQVQSYAADRLNKQAALGSLGEKSVLDTPFSLVSYSDVMIRDQQASTVSEVLRADPSIRETTNAGHLNENLQIRGFTVGFEDYNINGLYGMSPSGRIPTDILDHVTLLEGPNALVAGMAPAGSVGGVVMAQTKRATKDL
- protein production: failed

Sequence: MNIITTDPLFGFVLTVLVFMIGVRINENFRKPWTNPLLFATVVIILILSLAHIPYKNYYIGGSIINDLIGPSTVALGIPLYKTFHLMKHHARSIVSSIAIAALVNCIFTALCAKFFSLSKLASLSIFPKSVTTAMAMGISDKMHGVEQITVVVVVATGILTSVLGGPLLKLFRITDPVAQGIALGGTGHAVGTGTAIELGKTQGAMAALSIGVTGIMYVIFAPIIAKIILGY
- protein production: failed

Sequence: DLDGLLQRTVERARDMLDADSAFLLLATDDETELEVRASTGLPSARQRFARVPVDAGPGRYGSARMPAVHDDLTAVPGAVPLLSGTGMRSVVTVPLKVEGRLTGSLGVAAESPSRYSNEEALRLQFAADRIALAVESA
- protein production: failed

Sequence: MEGLLIDYVQPGSIAEELEIEAGDRLVAINGQDLRDIIDFSFYAHDEELALEIVKPSGDHWEAEIERDGDEPLGLVFAPPVPAQCGNKCVFCFVHQLPKGLRRPLYVKDEDYRLSFLYGNYVTLSNIRRGDLDRIVAQRLSPLYISVHATNPALRERLLGRSEILPILDLMRELAAARIVMHSQIVLCPGLNDGVELEKTVRDLAGLHPWVESLAIVPIGLTKHRRGLPALEPVTASYAETFVQNWQPAAERLERELGAPFLFIADEFYIKAGLPFPPLETYGDLPQIENGVGMIPLFLDESERVLKKARKGKPVTVTVVTGESPYRYLAAFLERLSVRTGATFKPVAVHNRLFGESVTVTGLVAGSDIVEELSGRDLGDAVLVPDVMLKEGEGIFLDDLSVDGLGKSLGTRVLVVEATPQGVVDALRRVRSMLEHHHHHH
- protein production: failed

Sequence: MEIVQEGIAKIIVPEIPKTVSSDMPVFYNPRMRVNRDLAVLGLEYLCKKLGRPVKVADPLSASGIRAIRFLLETSCVEKAYANDISSKAIEIMKENFKLNNIPEDRYEIHGMEANFFLRKEWGFGFDYVDLDPFGTPVPFIESVALSMKRGGILSLTATDTAPLSGTYPKTCMRRYMARPLRNEFKHEVGIRILIKKVIELAAQYDIAMIPIFAYSHLHYFKLFFVKERGVEKVDKLIEQFGYIQYCFNCMNREVVTDLYKFKEKCPHCGSKFHIGGPLWIGKLWDEEFTNFLYEEAQKREEIEKETKRILKLIKEESQLQTVGFYVLSKLAEKVKLPAQPPIRIAVKFFNGVRTHFVGDGFRTNLSFEEVMKKMEELKEKQKEFLEKKKQG
- protein production: not failed

Sequence: MSNVVVIAVVLIVASLTGHVSAQMDMSPSSGPSGAPDCMANLMNMTGCLSYVTVGEGGGAAKPDKTCCPALAGLVESSPQCLCYLLSGDMAAQLGIKIDKAKALKLPGVCGVITPDPSLCSLFGIPVGAPVAMGDEGASPAYAPGSMSGAESPGGFGSGPSASRGSDAPSSAPYSLFLNLIIFPLAFAFYIFC
- protein production: failed

Sequence: MRKYLLIGVSAFVLGAGTMAYISPIAQANNAPKAQTYKLLELFGDVLGTVEDQYVTEVDDKKLIEAALDGMLTSLDPHSGYLAPDAFEDMQDTTRGEYGGLGLEVTSEEGVVKVISPMDGTPASRAGIQAGDYITAVNGQSVLGLTVNEAVKQMRGTAGEAVTLTIAREKTDPFDVKLVREVIKPKAAIARMEGDYGYVRLPGFNEKATDALASSVSELKSKNPKMKGLILDLRNNPGGLLDQAVGVADVFLDGGEVVSQRGRDPRNIQRYNARGGDMLNGLPMVVLINQGSASAAEIVAGALQDRKRAEVVGLTSFGKGSVQTVIPLRGGADGALKLTTARYFTPSGRSIQKTGIAPDLEVAQTRDQAQDIANRVWFSEASFKNALNADEGKSRVGAHTPAEAPPTGFDDKKGDFQLQRAIAVLQAGGVAKTPKLPKPAAKVAEVTAKAAAAAGGKTPVTEVK
- protein production: failed

Sequence: MSIELDATTYIHAKPTTAHSYILPKIFDVLGDHFDGSAENDVFDLGCGTGGAAAALTKAGYDVVGVDPSSDGIGKANIRHPGLALSVGSAYDDLSREYGSFSAVISLEVVEHVYDPKTFTSTMFDLVKPGGIAVISTPYHGYLKNLALAATGKMDDHFMPLKDHGHIKFWSKNTLRTLLLETGFANVRFEYVGRIPAFAKSMIAVADKPFSQSARHGAVRRSSPEVVSTACRQKKP
- protein production: failed

Sequence: MAYIYGFRTLDRRVFYLALSRLIRASGRVSSFIFLPLIFIEIYSISFLITGLILGSSAIAMAFVQYYSGRWTDRIGRRFFLIVIPIPAAVFYFLMFTTVYLHMSVILLIIFWYGTIITNSLQYPAIEASVADVTSTSERLSGYTLIRIMANLGAAVGPLAGGFLAGINFSYIFLLASIFTVIELFILYYNVRETFLPARAIAEKIKLKIFKTDRFFFLFTLVGVFLGFTLRQNGPTLTVYAFDLKNLPLMDIGYLYSLNGIVVIALQMPILRLMSSRSNPVFWRGIGTIYYSIGFVILGIAPTFLYILLAMFIFTVGEDFMSPTTQTIITTLAPAEKKGSYIGSYNLLTSFGRFFGTIFGLYFLFIYQKTTFTFWIIIATSTGVIGLLYIFMSESFIKRTSKIATLPGKA
- protein production: failed

Sequence: MKLMQIRKPLLKSSLLDQNLTEEEVNMKFVQDLLNWVDEMQVQLDRTEWGSDLPSVESHLENHKNVHRAIEEFESSLKEAKISEIQMTAPLKLSYTDKLHRLESQYAKLLNTSRNQERHLDTLHNFVTRATNELIWLNEKEESEVAYDWSERNSSVARKKSYHAELMRELEQKEESIKAVQEIAEQLLLENHPARLTIEAYRAAMQTQWSWILQLCQCVEQHIQE
- protein production: not failed

Sequence: MKNLKRRVAVVTALALVAALTYVLWPRSESVHVTAYFPRTVGIYPGSDVRVLGVRIGEVEKITPEGDRVRVELKYDEGRRVPADSKAAIINSSVVSDRYVQLLPVYRKGPVLRNGAVIPESRTAVPVELDRVFGSLHTTADALGPQGANKDGSLSRLLGVSADNLDGQGENLNRTVEDLSQAVTTLSDGRKDLFGTVRNLQVFTAALSADDKSVRSFNTGLAEVAGQLAGERKDLADALKNLGTALGDVSAFVKNNKRSLNSNVKGLSKVTKVLVTQRAALAELLEVAPTGLSNLNNAYNPSAGTLDTRNNAQQAQDPAALMCSVLKTTGDEGGKNPDCKELKKLFDSLPKVPQGSAVTGTVDRTLGGILGASA
- protein production: failed

Sequence: PIIFVPGIMGSRLKFAKGKKQGTRAWDPDSSGFMFLNYGRFDVSAKKKKALLVGPEFDPDYLEVDTNNPKLDKSFLRRYPRADKRGWGGVMWGSYGPILRALHDHQWEEPVGHCFEFPVHAFGYNWTASNMEAGRKLKEYIGATIDHYAKGLRDEAGRPLERLCTRVILVTHSMGGLVARSACVLHGAAEKVLGVVHGVQPATGSPAAYWRMK
- protein production: failed

Sequence: MFTETGLKSGRRTMRFARLLLLPLIVIGTLSGCAVNMADIHGFNVISLEQEKELGTKFAAEIEKQYPVYNDPEAQKYVDRLGRRLLTGAREVSFDYVFKVVKDDSVNAFAIPGGRLYVHTGLLKAAQSETEVAAVMAHEISHAVARHGTRQMTQQYGYSLVLSLVLGQNSNMLAQIAGELFGKAGMMSYSRDYENQADFLGVETMSKAGYNPQGMVSFFQKLDTMGQQNPSALTKFFSSHPLTSERIQRVQAEIAQLPPRTYPPVDNTDLQKIRARIKLEHHHHHH
- protein production: failed

Sequence: MNQLSRSACTAPQRGGAWQWIACWALLLFTLLVAPLAAAQAVQGNASQEAALTVAPAPRVGVVTMQPGEVFFERFGHDAIVVVDPRTQQATSYNFGFFDPSEPDFVPRFARGDMMYYLVALPLEEDLSQYRDAGRGVSVQWLDLPPDQARALAEGLAVRSQPENARYHYDYFMANCATMVRDTLDRAMGGALKSQLAGRSRGNTFRSEAVRLASPAPWMWLGFDLGLGPYADRPLSRWEEAFVPMRLADSLTQVHNSAGRPLVQSTQVLLPHRIAPEPAEQQRHWWPWLLTGLIVAAGVLALGRRQRLLAGLALPFWLLCAIGGGLLVYLWGFTAHASAWGNRNLLLVNPLCMLLWFGGIRLQLGHRPGRWFNVLSWVVAACALAALVIHWLSFQAQDNLQWVMLLLPIHTALAIALRLRDLPVRTR
- protein production: failed

Sequence: MIRHLLVAHDLTPEADVALARAAQLARQHDARVSLLHVYDPGLSASAVKTVSAMLQLKRKEAGLDEDSAIHLFRGQPIDGILQQTRALEPDLLLMGAHHQKTFERFGNTTLDQVVRRSRVPVLLAVREADEPYRQALSALDFSQCACTALRQAYRLLPVEADLHALHVFESPDDGVLGLPRQNAAHLATQAGLIEQLLSDEQERLPGVGPQLSHEVVPGVLPYSLDAALKQRQPELLALGRHSRNALMQALLGNLAQRYLRQPSCDVLVTS
- protein production: failed

Sequence: MLHSTAGWKNMDFKRFSLLIATRTILAMLTLIFLTQAIMSDGYHATVLLLSAVLLIQFFEITRFISKTNAELVRFFEAVRHADFSQRFELKSLGTGFDELGSTFTDILKRIQRVRSNQEAELRHIKAIIEHVPVPLLSIDHNGKITLWNNSVRRLFGTNAVTHIDDMAQFNEDFPKKLQSILAGERTLVHITIDDMEHKLIISATEITTATQQETLLSMQDIQSELALAQLQAWQDLVSVLTHEIMNSITPVASLAKTAVDLVQDVQEKTRTLPAITNEITEELDDVLGAVKTVARRSDGLMQFVTSYRRLTRLPSPNKKTISVATIFDHVTTLAKQNWQKDNIELTASITPQALDIHVDPDMIEQILLNLLLNAEHALITTAGVIEKKNSTPKIALNAFLNVRGHVIIEVADNGKGIENKNMTQIFVPFFTTKKEGSGVGLALTRQVMLAHNGKVAVRNNSQGGATFSLTF
- protein production: failed

Sequence: MITDEHIELFLAQAHRYGDAKLMLCSSGNLSWRIGEEALISGTGSWVPTLAKEKVSICNIASGTPTNGVKPSMESTFHLGVLRERPDVNVVLHFQSEYATAISCMKNKPTNFNVTAEIPCHVGSEIPVIPYYRPGSPELAKAVVEAMLKHNSVLLTNHGQVVCGKDFDQVYERATFFEMACRIIVQSGGDYSVLTPEEIEDLEIYVLGKKTK
- protein production: not failed
